Measured values published in PMC11079029, “Intramolecular autoinhibition regulates the selectivity of PRPF40A tandem WW domains for proline-rich motifs” (Nature Communications, 2024).

System: GFP-tagged PRPF40A-Nter-MUT
Test: SILAC GFP-immunoprecipitation with quantitative mass spectrometry, mutant construct
Type: binding, human (Hela cells)
Settings: quantitative MS, Hela cells, protein by gene name
Method: The PRPF40A N-terminal region (isoform 2, residues 1-221) was PCR-amplified from RPE1 cDNA (ATCC, Cat# CRL-4000) cDNA. The sequence was amplified in two fragments and both fragments were combined by overhang. All PCRs were carried out using Q5 Polymerase (NEB) according to manufacturer’s protocol. The resulting PRPF40A N-terminal region was cloned into a GFP-expressing pcDNA5 vector (see pcDNA5 GFP vector in ref. [28]) using Q5 Site-Directed Mutagenesis Kit (NEB). Nter-MUT, containing the PPVP/PALPP motifs changed to AAAA/AAAAA, was obtained by mutating the N-ter-WW12-containing plasmid with Q5 site-directed mutagenesis. Plasmids were transformed into DH5alpha chemically competent cells. After culturing, DNA isolation was performed with either ZymoPURE Plasmid Miniprep Kit (Zymo Research) or QIAGEN Plasmid Plus Midi Kit (Qiagen). The sequence was confirmed by Sanger Sequencing (GATC Eurofins). All used oligonucleotides are shown in Supplementary Table 6.
Hela cells (ATCC, Cat# CCL-2, RRID:CVCL_0030) were cultured in DMEM SILAC medium (Thermo Fisher) supplemented with 10% filtered FBS (Sigma-Aldrich) and 1% penicillin-streptomycin (Thermo-Fisher). The SILAC medium contains either light (Arg0, Lys0), medium (Arg6, Lys4) or heavy (Arg10, Lys8) isotopes (Cambridge Isotopes Laboratories). Hela cells were cultivated for 14 days in SILAC medium to assure sufficient isotope incorporation. For transfection, 7 × 10^6 Hela cells were seeded in a 15 cm culture dish in 20 ml of respective SILAC medium and grown for 24 h. The cells were then transfected with 20 µg of plasmids expressing either GFP (Control), GFP-tagged N-ext-WW12 or GFP-tagged-N-ext-WW12-MUT utilizing 64 µl FuGENE (Promega) (ratio 1:3.2), according to manufacturer’s protocol.
24 h post-transfection, cells were washed twice in ice-cold PBS and harvested in 1 ml mRIPA buffer (50 mM Tris, 150 mM NaCl, 1 mM EDTA, 1% NP-40, 0.1% Na-deoxycholate), supplemented with 2 µl Turbo-DNase (Thermo Fisher) and 3 µl protease-inhibitor cocktail cOmplete (Sigma-Aldrich). Cell lysates were cleared by centrifugation at 16,000 × g, 4 °C, 15 min and concentration was measured using Pierce BCA Protein Assay kit (Thermo Scientific). The expressed constructs were pulled down by incubating 2.5 mg of lysate with 20 μl GFP-nanobody agarose beads (ChromoTek, GTA-20) for 1 h at 4 °C under constant agitation. Subsequently, beads were washed three times with mRIPA buffer without supplements, then eluted in 1X NuPAGE LDS sample buffer (Thermo Scientific). To detach the proteins from the beads, the eluate was heated to 70 °C for 10 min To evaluate the success of the immunoprecipitation, input (1%) and IP samples were analyzed on a NuPAGE 4–12% Bis-Tris-Acrylamide gel (Thermo Fisher) using NuPAGE MOPS SDS running buffer (Thermo Fisher). Proteins were stained using Sypro Ruby protein gel stain (Thermo Fisher) according to manufacturer’s protocol.
The eluted proteins of three SILAC states (light, medium, heavy) were combined. The proteins were then reduced in DTT, alkylated in iodoacetamide, and purified using the SP3 paramagnetic bead approach. This was followed by overnight enzymatic digestion using trypsin (1 µg per sample) in 50 mM ammonium bicarbonate at 37 °C. The peptide solution was then purified by solid phase extraction in C18 StageTips[99].
Peptides were separated by online reverse phase liquid chromatography using the EASY-nLC 1000 system (Thermo Scientific) in a 30-cm analytical column (inner diameter: 75 μm; heated at 50 °C) packed in-house with ReproSil-Pur 120 C18-AQ 1.9-μm beads (Dr. Maisch GmbH). The gradient separation was performed through a 105-min non-linear gradient of 1.6–32% acetonitrile with 0.1% formic acid at a nanoflow rate of 225 nl/min. The eluted peptides were sprayed directly by electrospray ionization into a Q Exactive Plus Orbitrap mass spectrometer (Thermo Scientific). […]

| Molecule | Immunoprecipitation enrichment MUT vs WT, log2 FC |
| --- | --- |
| DIAPH2 (protein, UniProt O60879 1-1101, looked up) Protein diaphanous homolog 2: MEQPGAAASGAGGGSEEPGGGRSNKRSAGNRAANEEETKNKPKLNIQIKTLADDVRDRITSFRKSTVKKEKPLIQHPIDSQVAMSEFPAAQPLYDERSLNLSEKEVLDLFEKMMEDMNLNEEKKAPLRNKDFTTKREMVVQYISATAKSGGLKNSKHECTLSSQEYVHELRSGISDEKLLNCLESLRVSLTSNPVSWVNNFGHEGLGLLLDELEKLLDKKQQENIDKKNQYKLIQCLKAFMNNKFGLQRILGDERSLLLLARAIDPKQPNMMTEIVKILSAICIVGEENILDKLLGAITTAAERNNRERFSPIVEGLENQEALQLQVACMQFINALVTSPYELDFRIHLRNEFLRSGLKTMLPDLKEKENDELDIQLKVFDENKEDDLTELSHRLNDIRAEMDDMNEVYHLLYNMLKDTAAENYFLSILQHFLLIRNDYYIRPQYYKIIEECVSQIVLHCSGMDPDFKYRQRLDIDLTHLIDSCVNKAKVEESEQKAAEFSKKFDEEFTARQEAQAELQKRDEKIKELEAEIQQLRTQAQVLSSSSGIPGPPAAPPLPGVGPPPPPPAPPLPGGAPLPPPPPPLPGMMGIPPPPPPPLLFGGPPPPPPLGGVPPPPGISLNLPYGMKQKKMYKPEVSMKRINWSKIEPTELSENCFWLRVKEDKFENPDLFAKLALNFATQIKVQKNAEALEEKKTGPTKKKVKELRILDPKTAQNLSIFLGSYRMPYEDIRNVILEVNEDMLSEALIQNLVKHLPEQKILNELAELKNEYDDLCEPEQFGVVMSSVKMLQPRLSSILFKLTFEEHINNIKPSIIAVTLACEELKKSESFNRLLELVLLVGNYMNSGSRNAQSLGFKINFLCKIRDTKSADQKTTLLHFIADICEEKYRDILKFPEELEHVESASKVSAQILKSNLASMEQQIVHLERDIKKFPQAENQHDKFVEKMTSFTKTAREQYEKLSTMHNNMMKLYENLGEYFIFDSKTVSIEEFFGDLNNFRTLFLEAVRENNKRREMEEKTRRAKLAKEKAEQEKLERQKKKKQLIDINKEGDETGVMDNLLEALQSGAAFRDRRKRIPRNPDNRRVPLERSRSRHNGAISSK | 1.317 |
| MTREX (protein, UniProt P42285 2-1042, looked up) Exosome RNA helicase MTR4: ADAFGDELFSVFEGDSTTAAGTKKDKEKDKGKWKGPPGSADKAGKRFDGKLQSESTNNGKNKRDVDFEGTDEPIFGKKPRIEESITEDLSLADLMPRVKVQSVETVEGCTHEVALPAEEDYLPLKPRVGKAAKEYPFILDAFQREAIQCVDNNQSVLVSAHTSAGKTVCAEYAIALALREKQRVIFTSPIKALSNQKYREMYEEFQDVGLMTGDVTINPTASCLVMTTEILRSMLYRGSEVMREVAWVIFDEIHYMRDSERGVVWEETIILLPDNVHYVFLSATIPNARQFAEWICHLHKQPCHVIYTDYRPTPLQHYIFPAGGDGLHLVVDENGDFREDNFNTAMQVLRDAGDLAKGDQKGRKGGTKGPSNVFKIVKMIMERNFQPVIIFSFSKKDCEAYALQMTKLDFNTDEEKKMVEEVFSNAIDCLSDEDKKLPQVEHVLPLLKRGIGIHHGGLLPILKETIEILFSEGLIKALFATETFAMGINMPARTVLFTNARKFDGKDFRWISSGEYIQMSGRAGRRGMDDRGIVILMVDEKMSPTIGKQLLKGSADPLNSAFHLTYNMVLNLLRVEEINPEYMLEKSFYQFQHYRAIPGVVEKVKNSEEQYNKIVIPNEESVVIYYKIRQQLAKLGKEIEEYIHKPKYCLPFLQPGRLVKVKNEGDDFGWGVVVNFSKKSNVKPNSGELDPLYVVEVLLRCSKESLKNSATEAAKPAKPDEKGEMQVVPVLVHLLSAISSVRLYIPKDLRPVDNRQSVLKSIQEVQKRFPDGIPLLDPIDDMGIQDQGLKKVIQKVEAFEHRMYSHPLHNDPNLETVYTLCEKKAQIAIDIKSAKRELKKARTVLQMDELKCRKRVLRRLGFATSSDVIEMKGRVACEISSADELLLTEMMFNGLFNDLSAEQATALLSCFVFQENSSEMPKLTEQLAGPLRQMQECAKRIAKVSAEAKLEIDEETYLSSFKPHLMDVVYTWATGATFAHICKMTDVFEGSIIRCMRRLEELLRQMCQAAKAIGNTELENKFAEGITKIKRDIVFAASLYL | 1.198 |
| SF3A3 (protein, UniProt Q12874 1-501, looked up) Splicing factor 3A subunit 3: METILEQQRRYHEEKERLMDVMAKEMLTKKSTLRDQINSDHRTRAMQDRYMEVSGNLRDLYDDKDGLRKEELNAISGPNEFAEFYNRLKQIKEFHRKHPNEICVPMSVEFEELLKARENPSEEAQNLVEFTDEEGYGRYLDLHDCYLKYINLKASEKLDYITYLSIFDQLFDIPKERKNAEYKRYLEMLLEYLQDYTDRVKPLQDQNELFGKIQAEFEKKWENGTFPGWPKETSSALTHAGAHLDLSAFSSWEELASLGLDRLKSALLALGLKCGGTLEERAQRLFSTKGKSLESLDTSLFAKNPKSKGTKRDTERNKDIAFLEAQIYEYVEILGEQRHLTHENVQRKQARTGEEREEEEEEQISESESEDEENEIIYNPKNLPLGWDGKPIPYWLYKLHGLNINYNCEICGNYTYRGPKAFQRHFAEWRHAHGMRCLGIPNTAHFANVTQIEDAVSLWAKLKLQKASERWQPDTEEEYEDSSGNVVNKKTYEDLKRQGLL | 1.179 |
| SF3A2 (protein, UniProt Q15428 1-464, looked up) Splicing factor 3A subunit 2: MDFQHRPGGKTGSGGVASSSESNRDRRERLRQLALETIDINKDPYFMKNHLGSYECKLCLTLHNNEGSYLAHTQGKKHQTNLARRAAKEAKEAPAQPAPEKVKVEVKKFVKIGRPGYKVTKQRDSEMGQQSLLFQIDYPEIAEGIMPRHRFMSAYEQRIEPPDRRWQYLLMAAEPYETIAFKVPSREIDKAEGKFWTHWNRETKQFFLQFHFKMEKPPAPPSLPAGPPGVKRPPPPLMNGLPPRPPLPESLPPPPPGGLPLPPMPPTGPAPSGPPGPPQLPPPAPGVHPPAPVVHPPASGVHPPAPGVHPPAPGVHPPAPGVHPPTSGVHPPAPGVHPPAPGVHPPAPGVHPPAPGVHPPAPGVHPPPSAGVHPQAPGVHPAAPAVHPQAPGVHPPAPGMHPQAPGVHPQPPGVHPSAPGVHPQPPGVHPSNPGVHPPTPMPPMLRPPLPSEGPGNIPPPPPTN | 1.275 |
| SF3A1 (protein, UniProt Q15459 2-793, looked up) Splicing factor 3A subunit 1: PAGPVQAVPPPPPVPTEPKQPTEEEASSKEDSAPSKPVVGIIYPPPEVRNIVDKTASFVARNGPEFEARIRQNEINNPKFNFLNPNDPYHAYYRHKVSEFKEGKAQEPSAAIPKVMQQQQQTTQQQLPQKVQAQVIQETIVPKEPPPEFEFIADPPSISAFDLDVVKLTAQFVARNGRQFLTQLMQKEQRNYQFDFLRPQHSLFNYFTKLVEQYTKILIPPKGLFSKLKKEAENPREVLDQVCYRVEWAKFQERERKKEEEEKEKERVAYAQIDWHDFVVVETVDFQPNEQGNFPPPTTPEELGARILIQERYEKFGESEEVEMEVESDEEDDKQEKAEEPPSQLDQDTQVQDMDEGSDDEEEGQKVPPPPETPMPPPLPPTPDQVIVRKDYDPKASKPLPPAPAPDEYLVSPITGEKIPASKMQEHMRIGLLDPRWLEQRDRSIREKQSDDEVYAPGLDIESSLKQLAERRTDIFGVEETAIGKKIGEEEIQKPEEKVTWDGHSGSMARTQQAAQANITLQEQIEAIHKAKGLVPEDDTKEKIGPSKPNEIPQQPPPPSSATNIPSSAPPITSVPRPPTMPPPVRTTVVSAVPVMPRPPMASVVRLPPGSVIAPMPPIIHAPRINVVPMPPSAPPIMAPRPPPMIVPTAFVPAPPVAPVPAPAPMPPVHPPPPMEDEPTSKKLKTEDSLMPEEEFLRRNKGPVSIKVQVPNMQDKTEWKLNGQVLVFTLPLTDQVSVIKVKIHEATGMPAGKQKLQYEGIFIKDSNSLAYYNMANGAVIHLALKERGGRKK | 1.381 |
